In patent US20140242093A1, “METHODS AND COMPOSITIONS FOR MODULATING THE INNATE IMMUNE RESPONSE AND/OR MYOGENESIS IN A MAMMALIAN SUBJECT” (FRED HUTCHINSON CANCER RESEARCH CENTER, priority 2011, published 2014):
Several values for one entry are separate records, joined by “and”; a condition that tells them apart may be missing. Equal entries are not always repeated.

Experiments:
[1] = test system: Cultured control human myoblasts; experiment: Beta-defensin 3 and innate immune response, real-time qPCR of IFIH1, ISG20, DEFB103; assay type: cell-based
Experimental: Cultured control human myoblasts were grown to 80% confluence and infected with equivalent titers of lenti-GFP, lenti-DUX4-s and lenti-DUX4-fl in growth media supplemented with 8 μg/mL polybrene. Expression of innate immune responsive genes including IFIH1 (MDA5), ISG20 and DEFB103 were assessed by real-time qPCR as previously described at 24 hours (primer sequences below). For conditioned media, cells were infected with lenti-DUX4-fl for 12 hours, thoroughly washed 3 times with PBS and switched to fresh growth media to condition for 12 hours. Control conditioned media was produced from cells not infected with any lentivirus. Myoblasts were infected with lenti-GFP in either control conditioned media, lenti-DUX4-fl conditioned media or regular growth media supplemented with 1 μM human β-defensin 3 (Peptides International, Louisville, Ky.). Expression of innate immune responsive genes were examined after 24 hours.

[2] = test system: Cultured control myoblasts; experiment: Beta-defensin 3 on myoblasts in growth media, expression arrays and MSTN qPCR; assay type: cell-based, human
Experimental: Cultured control myoblasts were grown at 50% confluence and treated with 1 μM human β-defensin 3. Equivalent volume of vehicle (water) was added to myoblasts for the control condition. Quadruplicate samples of control- and DEFB103-treated myoblasts were assessed for global expression changes on HumanHT-12 v4 Expression BeadChip Whole Genome arrays and analyzed as described in main methods. Differential expression of myostatin (MSTN) was confirmed by real-time qPCR.

[3] = test system: Cultured primary muscle cells; experiment: Beta-defensin 3 and myotube formation, immunostaining for myosin heavy chain; assay type: cell-based; settings: 0.5 uM, 72 hours in differentiation medium
Experimental: Cultured primary muscle cells were cultured in differentiation medium for 72 hours in the presence or absence of 0.5 uM Human β-defensin 3.

[4] = test system: control myoblasts in differentiation media
Experimental: Cultured control myoblasts were grown to confluence and switched to differentiation media (as described in Snider et al., 2010). 24 hours later, media was refreshed and either supplemented with 1 μM human β-defensin 3 or equivalent volume of water. Media was refreshed again at 48 hours. Cells were differentiated for a total of 72 hours. Quadruplicate samples were analyzed by expression microarrays as described above.

B1: DEFB103: human β-defensin 3 peptide (Peptides International), polypeptide SEQ ID NO:178 (peptide, listed as Homo sapiens)
chain: MRIHYLLFALLFLFLVPVPGHGGIINTLQKYYCRVRGGRCAVLSCLPKEEQIGKCSTRGRKCCRRKK
[1]; RT-qPCR of IFIH1 and ISG20, FIG. 8
  induction of innate immune genes by lenti-GFP: inhibited the induction of the innate immune response to lenti-GFP
[1]; copies of viral integrants and GFP mRNA
  viral entry and transduction: did not prevent viral entry and transduction
[2]; RT-qPCR, myoblasts
  mRNA for myostatin: increased the mRNA for myostatin
[2]; expression arrays, 2-fold change threshold
  gene expression changes in myoblasts: did not alter the expression of any genes
[2]; expression arrays, myoblasts
  myostatin upregulation: approximately 50%
[3]
  muscle cell fusion and myosin heavy chain expression: inhibits muscle cell fusion and expression of myosin heavy chain
[4]
  log2 FC defMT/MT, CYP2J2: −1.05
[4]; RT-qPCR, FIG. 11
  expression of muscle differentiation genes (ACTA1, CKM, CASQ2, MYH2, TNNT3): inhibits the expression of genes necessary for normal muscle differentiation
[4]; differentiating muscle cells vs untreated control
  number of genes with reduced expression: 44 genes
[4]; gene ACTA1, log2 ratio of expression in DEFB103 treated muscle cells compared to control muscle cells, differentiation media
  log2 FC defMT/MT, ACTA1: −2.65
[4]; gene AIF1L, DEFB103 treated vs control differentiating muscle cells
  log2 FC defMT/MT, AIF1L: −1.16
[4]; gene AKR1C2, DEFB103 treated vs control differentiating muscle cells
  log2 FC defMT/MT, AKR1C2: 1.41
[4]; gene ANGPTL4, DEFB103 treated vs control differentiating muscle cells
  log2 FC defMT/MT, ANGPTL4: 1.21
[4]; gene ARPP-21, DEFB103 treated vs control differentiating muscle cells
  log2 FC defMT/MT, ARPP-21: −1.06
[4]; gene ATP2A2, DEFB103 treated vs control differentiating muscle cells
  log2 FC defMT/MT, ATP2A2: −1.04
[4]; gene CACNG1, DEFB103 treated vs control differentiating muscle cells
  log2 FC defMT/MT, CACNG1: −1.58
[4]; gene CASQ2, DEFB103 treated vs control differentiating muscle cells
  log2 FC defMT/MT, CASQ2: −2.00
[4]; gene CKB, DEFB103 treated vs control differentiating muscle cells
  log2 FC defMT/MT, CKB: −1.16
[4]; gene CKM, DEFB103 treated vs control differentiating muscle cells
  log2 FC defMT/MT, CKM: −1.90
[4]; gene CTGF, DEFB103 treated vs control differentiating muscle cells
  log2 FC defMT/MT, CTGF: −1.12
[4]; gene DKK1, DEFB103 treated vs control differentiating muscle cells
  log2 FC defMT/MT, DKK1: 1.22
[4]; gene ENO3 (two array entries), DEFB103 treated vs control differentiating muscle cells
  log2 FC defMT/MT, ENO3: −1.51 and −1.47
[4]; gene FOLR1 (two array entries), DEFB103 treated vs control differentiating muscle cells
  log2 FC defMT/MT, FOLR1: −1.10 and −1.03
[4]; gene HBEGF, DEFB103 treated vs control differentiating muscle cells
  log2 FC defMT/MT, HBEGF: −1.10
[4]; gene HES6, DEFB103 treated vs control differentiating muscle cells
  log2 FC defMT/MT, HES6: −1.24
[4]; gene HFE2, DEFB103 treated vs control differentiating muscle cells
  log2 FC defMT/MT, HFE2: −1.04
[4]; gene HMOX1, DEFB103 treated vs control differentiating muscle cells
  log2 FC defMT/MT, HMOX1: 1.66
[4]; gene HRC, DEFB103 treated vs control differentiating muscle cells
  log2 FC defMT/MT, HRC: −1.40
[4]; gene IL32, DEFB103 treated vs control differentiating muscle cells
  log2 FC defMT/MT, IL32: −1.03
[4]; gene LMCD1, DEFB103 treated vs control differentiating muscle cells
  log2 FC defMT/MT, LMCD1: −1.03
[4]; gene LOC389827 (two array entries), DEFB103 treated vs control differentiating muscle cells
  log2 FC defMT/MT, LOC389827: −1.48 and −1.38
[4]; gene MME, DEFB103 treated vs control differentiating muscle cells
  log2 FC defMT/MT, MME: 1.27
[4]; gene MT1X, DEFB103 treated vs control differentiating muscle cells
  log2 FC defMT/MT, MT1X: 1.65
[4]; gene MYBPH, DEFB103 treated vs control differentiating muscle cells
  log2 FC defMT/MT, MYBPH: −1.49
[4]; gene MYH3, DEFB103 treated vs control differentiating muscle cells
  log2 FC defMT/MT, MYH3: −2.20
[4]; gene MYH7, DEFB103 treated vs control differentiating muscle cells
  log2 FC defMT/MT, MYH7: −1.73
[4]; gene MYH8, DEFB103 treated vs control differentiating muscle cells
  log2 FC defMT/MT, MYH8: −2.62
[4]; gene MYL1 (two array entries), DEFB103 treated vs control differentiating muscle cells
  log2 FC defMT/MT, MYL1: −1.18 and −1.11
[4]; gene MYL6B, DEFB103 treated vs control differentiating muscle cells
  log2 FC defMT/MT, MYL6B: −1.00
[4]; gene MYLPF, DEFB103 treated vs control differentiating muscle cells
  log2 FC defMT/MT, MYLPF: −1.53
[4]; gene MYOM1, DEFB103 treated vs control differentiating muscle cells
  log2 FC defMT/MT, MYOM1: −1.20
[4]; gene NDRG1, DEFB103 treated vs control differentiating muscle cells
  log2 FC defMT/MT, NDRG1: 1.01
[4]; gene PLIN2 (two array entries), DEFB103 treated vs control differentiating muscle cells
  log2 FC defMT/MT, PLIN2: 1.61 and 1.79
[4]; gene PRAGMIN, DEFB103 treated vs control differentiating muscle cells
  log2 FC defMT/MT, PRAGMIN: −1.10
[4]; gene RASSF4, DEFB103 treated vs control differentiating muscle cells
  log2 FC defMT/MT, RASSF4: −1.03
[4]; gene SMPX, DEFB103 treated vs control differentiating muscle cells
  log2 FC defMT/MT, SMPX: −1.76
[4]; gene SMYD1, DEFB103 treated vs control differentiating muscle cells
  log2 FC defMT/MT, SMYD1: −1.07
[4]; gene TNNC1, DEFB103 treated vs control differentiating muscle cells
  log2 FC defMT/MT, TNNC1: −1.45
[4]; gene TNNC2, DEFB103 treated vs control differentiating muscle cells
  log2 FC defMT/MT, TNNC2: −1.49
[4]; gene TNNT1, DEFB103 treated vs control differentiating muscle cells
  log2 FC defMT/MT, TNNT1: −1.00
[4]; gene TNNT3 (two array entries), DEFB103 treated vs control differentiating muscle cells
  log2 FC defMT/MT, TNNT3: −1.55 and −1.52
[4]; gene TPM2, DEFB103 treated vs control differentiating muscle cells
  log2 FC defMT/MT, TPM2: −1.41
[4]; gene VASH2, DEFB103 treated vs control differentiating muscle cells
  log2 FC defMT/MT, VASH2: −1.22
[4]; gene ZFP106, DEFB103 treated vs control differentiating muscle cells
  log2 FC defMT/MT, ZFP106: −1.09
